Laboratory results taken from publication PMC4877600.

Test system: human immunoglobulin E (IgE) (Homo sapiens)
Assay: fluorescence bead-binding assay (thermal elution)
Conditions: IgE on beads; selection buffer as printed: 44.5 mM Tris base, 44.5 mM bisboronic acid (sic), 50 mM NaCl, pH 8.5; 0-100 nM DNA, room temperature, 2 h; IgE beads 3x10^4 per …

GCCTGTTGTGAGCCTCCTGTCGAAGATGTAGGCCATCCTGTGGGGGTACGGGGCGGGCTGTGGTTTGAGCGTTTATTCTTGTCTCCC [SIGE5]
Kd: 0.01 µM

GCCTGTTGTGAGCCTCCTGTCGAAACTAGACCGGGAGCAAAACGGCAGATTGGGGCAAGGCCGGTTGAGCGTTTATTCTTGTCTCCC [SIGE7]
Kd: 0.018 µM
